According to paper PMC4822156, “Structural basis for ligand-dependent dimerization of phenylalanine hydroxylase regulatory domain” (Scientific Reports, 2016):

Biological target: the molecule itself
Experiment: SEC-MALS; hTH-RD in the absence of amino acid ligand (Supplementary Fig. S2C)

B1: regulatory domain of human tyrosine hydroxylase (hTH-RD), residues 65-160 (domain or fragment, UniProt P07101 96-191, looked up)
chain: GDPLEAVAFEEKEGKAVLNLLFSPRATKPSALSRAVKVFETFEAKIHHLETRPAQRPRAGGPHLEYFVRLEVRRGDLAALLSGVRQVSEDVRSPAG
notes: tyrosine hydroxylase (TH), human, regulatory domain, residues 65-160; which isoform the numbers count on is told only by GenBank number 88900503; Vector pFB-Lic-Bse; source: insect sf9 cells, purified (as the PAH domains); not shown: His6, N-terminal, cleaved
stoichiometry N: 2
